Assay [1] addresses EVA-A(DN) (Amblyomma americanum). Description: SPR. On the technique in general: Surface plasmon resonance follows binding to a sensor surface in real time, without labels.
Assay [2] has as its target EVA-A(L39P) (Amblyomma americanum). Description: SPR.
Assay [3] has as its target EVA-A(Y44A) (Amblyomma americanum). Description: SPR.
Assay [4] deals with EVA-A(C8) (Amblyomma americanum). Description: SPR.
The target in assay [5] is EVA-A(DC) (Amblyomma americanum). Nature of the assay: SPR.
For assay [6], the target named is EVA-4 (UniProt P0C8E9). Description: not stated; Kd of EVA-4 for human chemokines, three readings (source data of Supplementary Fig. 7); method and conditions not told for EVA-4.
Assay [7] deals with EVA-A(21-102) (A. americanum). Nature of the assay: SPR.
The target of assay [8] is EVA-A(L39P) (A. americanum). Description: SPR.
Assay [9] addresses EVA-A(C8) (A. americanum). Nature of the assay: SPR.
Assay [10] deals with EVA-A(Y44A) (A. americanum). Description: SPR.
The target of assay [11] is EVA-A(1-98) (A. americanum). Description: SPR.

The record followed here is paper PMC10349104.

Where “and” joins values, the source holds several entries; their conditions need not be identical. Identical values can stand only once. A value given as a limit tells only on which side of the number the result lay.

The Kd is the equilibrium constant for the complex coming apart. For orientation: kon means the second-order rate constant of association. A higher kon goes with fast association. The koff is the rate constant with which the complex falls apart. Read a low koff as a long-lived complex. For CCL23 (ligand), the Kd in assay [1] is 0.168 nM and 0.972 nM and 0.384 nM; in assay [2], 1.15 nM and 0.794 nM and 1.49 nM; in assay [3] it was 15.2 nM and 26.4 nM and 14.7 nM; in assay [4], 13 nM and 34.4 nM and 13.6 nM; in assay [5], 0.105 nM and 0.44 nM and 0.794 nM; in assay [6], 7.43 nM and 7.41 nM and 7.39 nM. The on-rate constant (kon) is 53100 M⁻¹ s⁻¹ and 56200 M⁻¹ s⁻¹ and 152000 M⁻¹ s⁻¹ in [1]; 107000 M⁻¹ s⁻¹ and 201000 M⁻¹ s⁻¹ and 113000 M⁻¹ s⁻¹ in [2]; 111000 M⁻¹ s⁻¹ and 70100 M⁻¹ s⁻¹ and 120000 M⁻¹ s⁻¹ in assay [3]; 89700 M⁻¹ s⁻¹ and 45800 M⁻¹ s⁻¹ and 87600 M⁻¹ s⁻¹ in [4]; 144000 M⁻¹ s⁻¹ and 85600 M⁻¹ s⁻¹ and 201000 M⁻¹ s⁻¹ in [5]. Moreover, the off-rate (koff) is 0.000123 s⁻¹ and 0.00016 s⁻¹ and 0.000168 s⁻¹ in assay [2]; 0.00168 s⁻¹ and 0.00185 s⁻¹ and 0.00176 s⁻¹ in assay [3]; 0.00116 s⁻¹ and 0.00157 s⁻¹ and 0.0012 s⁻¹ in [4].
Turning to “CCL16 (from UniProt O15467 24-120) (ligand)”, the Kd is 0.223 nM and 0.225 nM and 0.22 nM in assay [1]; 0.22 nM in [7]; 0.17 nM in assay [8]; 1.9 nM in assay [9]; 0.2 nM in assay [10]; 0.188 nM and 0.138 nM in assay [2]. Also, the dissociation constant (Kd) in assay [11] was below 0.1 nM; in assay [3], 0.181 nM and 0.268 nM and 0.148 nM; in [4], 1.95 nM and 1.84 nM; in assay [5], 0.000499 nM and 0.00352 nM and 0.00269 nM; in assay [6], 2.31 nM and 4.95 nM and 5 nM. The off-rate constant (koff) in assay [1] was 0.000191 s⁻¹ and 0.000182 s⁻¹ and 0.000181 s⁻¹; in assay [7], 0.00019 s⁻¹; in assay [8] it was 0.00016 s⁻¹; in assay [9], 0.00075 s⁻¹; in assay [10] it was 0.00013 s⁻¹; in assay [2], 0.000226 s⁻¹ and 0.000159 s⁻¹. Besides, the koff in [11] was below 0.0001 s⁻¹; in assay [3] it was 0.0001 s⁻¹ and 0.000143 s⁻¹ and 0.000134 s⁻¹; in [4], 0.000666 s⁻¹ and 0.000831 s⁻¹. Also, the on-rate (kon) is 858000 M⁻¹ s⁻¹ and 809000 M⁻¹ s⁻¹ and 826000 M⁻¹ s⁻¹ in assay [1]; 831000 M⁻¹ s⁻¹ in [7]; 1.18e+06 M⁻¹ s⁻¹ in [8]; 396000 M⁻¹ s⁻¹ in assay [9]; 664000 M⁻¹ s⁻¹ in assay [10]; 1.2e+06 M⁻¹ s⁻¹ and 1.15e+06 M⁻¹ s⁻¹ in assay [2]. Moreover, the on-rate (kon) in assay [11] was 258000 M⁻¹ s⁻¹; in assay [3], 552000 M⁻¹ s⁻¹ and 534000 M⁻¹ s⁻¹ and 906000 M⁻¹ s⁻¹; in assay [4], 341000 M⁻¹ s⁻¹ and 451000 M⁻¹ s⁻¹; in [5] it was 256000 M⁻¹ s⁻¹ and 253000 M⁻¹ s⁻¹ and 265000 M⁻¹ s⁻¹.
